From patent US20200231684A1 (published 2020)
Substitutions are numbered along the chain they refer to.

B1: chimeric antibody C33D10 (antibody, V domains shown)
VH: QVQLQQSGTELLKPGASVKLSCKASGNTVTSYWMHWVKQRPGQGLEWIGEILPSTGRTNYNENFKGKAMLTVDKSSSTAYMQLSSLASEDSAVYYCTIVYFGNPWFAYWGQGTLVTVSA
VL: QIVLTQSPAIMSASLGERVTMTCTASSSVSSSYLHWYQKKPGSSPKLWVYSTSNLASGVPVRFSGSGSGTSYSLTISSMEAEDAATYYCHQHHRSPVTFGSGTKLEMK
notes: Mouse variable domains of 33D10 on human constant domains (hu IgG1KO/kappa); also called chimeric 33D10
B2: chimeric antibody C81B4 (antibody, V domains shown)
VH: QVQLQQPGADFVRPGASMRLSCKASGYSFTSSWIHWVKQRPGQGLEWIGEINPGNVRTNYNENFRNKATLTVDKSSTTAYMQLRSLTSADSAVYYCTVVFYGEPYFPYWGQGTLVTVSA
VL: B1 VL with L34F, K39Q, V49I, S51R, V61G, H92F, V97L, S101A, M107L
notes: Mouse variable domains of 81B4 on human constant domains (hu IgG1KO/kappa); also called chimeric 81B4
B3: chimeric antibody C73C5 (antibody, V domains shown)
VH: QVQLKESGPGLVAPSQSLSITCTVSGFSLTNYAVHWVRQFPGKGLEWLGVIWSDGSTDFNAPFKSRLSINKDNSKSQVFFKMNSLQIDDTAIYYCARKGGYSGSWFAYWGQGTLVTVSA
VL: DIVMTQSQKFLSTSVGVRVSVTCKASQDVGTNVLWYQQKIGQSPKPLIYSASYRHSGVPDRFTGSGSGTDFTLIISNVQSEDLAEYFCQQYSRYPLTFGPGTKLELK
notes: Mouse variable domains of 73C5 on human constant domains (hu IgG1KO/kappa); also called chimeric 73C5
B4: chimeric antibody C81A1 (antibody, V domains shown)
VH: QVQLKESGPGLVAPSQSLFITCTVSGFSLSSYEINWVRQVPGKGLEWLGVIWTGITTNYNSALISRLSISKDNSKSLVFLKMNSLQTDDTAIYYCARGTGTGFYYAMDYWGQGTSVTVSS
VL: DIQMTQTTSSLSASLGDRVTISCRASQDIYKYLNWYQQKPDGTLKLLIYYTSGLHSGVPSRFSGSGSGTDFSLTISNLEPEDIATYFCQQDSKFPWTFGGDTKLEIK
notes: Mouse variable domains of 81A1 on human constant domains (hu IgG1KO/kappa); also called chimeric 81A1
B5: chimeric antibody of 172C8 (antibody, V domains shown)
VH: EVQLQQSGPELVKPGASVKLSCKASGYTFTDNYMNWVRQSHGKSLEWIGRVNPSNGDTKYNQNFKGKATLTVDKSLSTAYMQLNGLTSEDSAVYYCGRTKNFYSSYSYDDAMDYWGQGTSVTVSS
VL: DIQMTQSPASQSASLGESVTFTCLASQTIGTWLAWYQQRPGKSPQLLIYAATSLADGVPSRFSGSGSGTQFSFNIRSLQAEDFASYYCQQVYTTPLTFGGGTKLEIK
notes: No own label printed; also called chimeric 172C8
B6: chimeric antibody of 67E7 (antibody, V domains shown)
VH: EVQLQQSGAEFVRPGASVKFSCTASGFNIKDDYIHWVRQRPEQGLEWVGRIDPANGNTKYAPKFQDKATITADTSSNTAYLQLSSLTSEDTAVYYCAKSFPNNYYSYDDAFAYWGQGTLVTVSA
VL: DIQMTQSPASQSASLGESVTFTCLASQTIGTWLGWYQQKPGKSPQLLIYRSTTLADGVPSRFSGSGSGTKFSFKISSLQAADFASYYCQQLYSAPYTFGGGTKLEIR
notes: No own label printed; also called chimeric 67E7
B7: chimeric antibody of 89A12 (antibody, V domains shown)
VH: B6 VH with F11L, K19R, F20L, E42K, V48L, A61D, K63R, Q82H, N102D
VL: B6 VL with T22S, S51A, T53S, K70N, A81E, F83L, A94G
notes: No own label printed; also called chimeric 89A12
B8: chimeric antibody of 76E10 (antibody, V domains shown)
VH: QVQLKESGPVLVAPSQSLSITCTVSGFSLTNYGVHWVRQPPGKGLEWLGVIWPVGSTNYNSALMSRLSIHKDNSKSQVFLRMNSLQTDDTAIYYCAKMDWDDFFDYWGQGTTLTVSS
VL: DIVMTQSQKFMSATVGGRVNITCKASQNVGRAVAWYQQKPGQSPKLLTHSASNRYTGVPDRFTGSGSGTDFTLTITNMQSEDLADYFCQQYSSYPLTFGAGTKLDLK
notes: No own label printed; also called chimeric 76E10
B9: chimeric antibody of 73F6 (antibody, V domains shown)
VH: B3 VH with F59Y, I87T
VL: B3 VL with P46A, S76T
notes: No own label printed; also called chimeric 73F6
B10: chimeric antibody of 78C8 (antibody, V domains shown)
VH: QVQLKESGPVLVAPSQSLSITCTVSGFSLTKFGVHWIRQTPGKGLEWLGVIWAGGPTNYNSALMSRLTISKDISQSQVFLRIDSLQTDDTAMYYCAKQIYYSTLVDYWGQGTSVTVSS
VL: DVLLTQTPLSLPVSLGDQASISCRSSQNIVHSNGNTYLQWYLQKPGQSPKLLIYKVSNRFSGVPDRFSGSGSGTDFTLKISRVEAEDLGVYYCFQGSHVPFTFGAGTKLELK
notes: No own label printed; also called chimeric 78C8

The binders below were run against T1, human IL-36R on cells (human, UniProt Q9HB29 20-575) (assay: cell-based or functional assay).
T1 sequence (looked up): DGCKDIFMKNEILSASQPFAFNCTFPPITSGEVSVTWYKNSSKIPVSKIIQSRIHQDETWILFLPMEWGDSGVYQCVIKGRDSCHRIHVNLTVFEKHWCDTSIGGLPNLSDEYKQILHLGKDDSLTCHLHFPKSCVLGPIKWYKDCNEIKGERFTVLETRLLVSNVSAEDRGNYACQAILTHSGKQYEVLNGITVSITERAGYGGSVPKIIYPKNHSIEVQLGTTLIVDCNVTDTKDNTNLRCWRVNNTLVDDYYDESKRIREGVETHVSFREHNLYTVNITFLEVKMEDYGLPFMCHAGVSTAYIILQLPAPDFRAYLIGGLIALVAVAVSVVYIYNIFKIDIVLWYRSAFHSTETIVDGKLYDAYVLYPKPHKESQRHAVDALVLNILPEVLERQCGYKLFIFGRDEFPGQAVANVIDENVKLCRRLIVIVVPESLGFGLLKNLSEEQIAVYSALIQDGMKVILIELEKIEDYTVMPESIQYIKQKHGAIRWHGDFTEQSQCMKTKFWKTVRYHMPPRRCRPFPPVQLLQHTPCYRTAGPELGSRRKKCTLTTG

Row | Binder | IC90, IL-8 release, NCI/ADR-RES cells, trun-IL-36a [nM] | IC90, IL-8 release, NCI/ADR-RES cells, trun-IL-36b [nM] | IC90, IL-8 release, NCI/ADR-RES cells, trun-IL-36g [nM] | IC90, pNFκB, NCI/ADR-RES cells, trun-IL-36a [nM] | IC90, pNFκB, NCI/ADR-RES cells, trun-IL-36b [nM] | IC90, pNFκB, NCI/ADR-RES cells, trun-IL-36g [nM]
1 | B1 | 0.4 | 0.3 | 0.2 | 1.9 | 2 | 1.3
2 | B2 | 0.4 | 0.1 | 0.1 | 1.3 | 0.9 | 0.4
3 | B3 | 0.7 | 0.4 | 0.4 | 2.1 | 0.9 | 1.8

Biological target: T1, human IL-36R on cells
Experiment: cell-based or functional assay
Remark: another data set of the same source

Row | Binder | IC90, IL-8 release, human primary keratinocytes (NHK), trun-IL-36a [nM] | IC90, IL-8 release, human primary keratinocytes (NHK), trun-IL-36b [nM] | IC90, IL-8 release, human primary keratinocytes (NHK), trun-IL-36g [nM] | IC90, pNFκB, human primary keratinocytes (NHK), trun-IL-36b [nM]
4 | B2 | 1.2 | 11.1 | 0.3 | 1.8
5 | B4 | 23.4 | 87 | 1.2 | 7.1
6 | B3 | 29.7 | 49.3 | 3.6 | 8.3

Each binder was assayed against T2, mouse IL-36R (mouse, UniProt Q9ERS7 22-338) (assay: BLI (Fortebio Octet), antibody injected over antigen surface).
T2 sequence (looked up): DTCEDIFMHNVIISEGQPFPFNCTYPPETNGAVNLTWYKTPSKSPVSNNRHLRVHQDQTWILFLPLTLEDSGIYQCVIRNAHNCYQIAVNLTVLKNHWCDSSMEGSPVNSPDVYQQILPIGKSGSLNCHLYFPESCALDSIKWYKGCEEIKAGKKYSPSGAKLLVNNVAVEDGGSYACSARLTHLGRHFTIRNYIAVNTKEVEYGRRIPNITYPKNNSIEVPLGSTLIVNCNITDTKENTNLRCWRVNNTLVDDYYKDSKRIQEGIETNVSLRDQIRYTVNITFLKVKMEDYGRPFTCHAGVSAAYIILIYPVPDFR
Method: (§1) B) Molecular selectivity over mouse IL-36R and human IL-1R1 The mouse and chimeric anti-IL-36R antibodies were also injected over either a mouse IL-36R or a human IL-1R1 surface at a concentration of 100 nM. The binding signal to mouse IL-36R and to human IL-1R1 for these antibodies measured using the Fortebio Octet (Fortebio, Menlo Park, Calif.) is zero, which indicates these antibodies selectively bind to human IL-36R.

Row | Binder | binding result
7 | B5 | no binding (tested: 100 nM)
8 | B1 | no binding (tested: 100 nM)
9 | B2 | no binding (tested: 100 nM)
10 | B6 | no binding (tested: 100 nM)
11 | B7 | no binding (tested: 100 nM)
12 | B4 | no binding (tested: 100 nM)
13 | B8 | no binding (tested: 100 nM)
14 | B3 | no binding (tested: 100 nM)
15 | B9 | no binding (tested: 100 nM)
16 | B10 | no binding (tested: 100 nM)

The binders below were run against T3, human IL-1R1 (human, UniProt P14778 18-336, limits assumed) in the same assay as above.
T3 construct: also called IL-1RI
T3 sequence (looked up): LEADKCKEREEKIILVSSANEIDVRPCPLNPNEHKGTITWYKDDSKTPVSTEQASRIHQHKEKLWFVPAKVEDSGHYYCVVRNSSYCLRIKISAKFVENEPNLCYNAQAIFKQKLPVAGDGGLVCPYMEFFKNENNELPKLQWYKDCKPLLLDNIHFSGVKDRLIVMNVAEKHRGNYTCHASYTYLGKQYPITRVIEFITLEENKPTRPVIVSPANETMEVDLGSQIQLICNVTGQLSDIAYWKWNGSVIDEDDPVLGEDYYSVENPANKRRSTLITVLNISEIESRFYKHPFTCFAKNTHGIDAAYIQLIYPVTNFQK
Method: as §1

Row | Binder | binding result
17 | B5 | no binding (tested: 100 nM)
18 | B1 | no binding (tested: 100 nM)
19 | B2 | no binding (tested: 100 nM)
20 | B6 | no binding (tested: 100 nM)
21 | B7 | no binding (tested: 100 nM)
22 | B4 | no binding (tested: 100 nM)
23 | B8 | no binding (tested: 100 nM)
24 | B3 | no binding (tested: 100 nM)
25 | B9 | no binding (tested: 100 nM)
26 | B10 | no binding (tested: 100 nM)
